Test results: US20210155689A1 (SHANGHAI PHARMAEXPLORER, published 2021)

T1: human LAG-3 on cells (HEK293-hLAG-3 stable cell line) (human, UniProt P18627 23-525)
T1 sequence: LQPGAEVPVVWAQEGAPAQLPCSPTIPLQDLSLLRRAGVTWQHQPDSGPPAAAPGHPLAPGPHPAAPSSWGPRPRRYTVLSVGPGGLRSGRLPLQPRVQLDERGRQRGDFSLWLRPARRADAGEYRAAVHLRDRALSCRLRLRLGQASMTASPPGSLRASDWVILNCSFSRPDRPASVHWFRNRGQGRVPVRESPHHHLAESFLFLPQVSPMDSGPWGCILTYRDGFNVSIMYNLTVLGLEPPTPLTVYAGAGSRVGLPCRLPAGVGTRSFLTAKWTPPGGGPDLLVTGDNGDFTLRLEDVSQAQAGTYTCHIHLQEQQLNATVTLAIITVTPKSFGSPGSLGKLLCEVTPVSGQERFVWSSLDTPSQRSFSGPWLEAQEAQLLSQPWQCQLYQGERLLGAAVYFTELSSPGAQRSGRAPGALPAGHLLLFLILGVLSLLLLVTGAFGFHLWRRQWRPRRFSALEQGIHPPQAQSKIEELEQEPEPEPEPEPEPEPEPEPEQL


Target: T1, human LAG-3 on cells (HEK293-hLAG-3 …)
Assay: FACS, HEK293-hLAG-3, antibody 0.000 nM
Text: The pIRES plasmid with the monkey-derived full-length gene was transfected into the HEK293 cell line to construct a HEK293 stable cell line containing monkey LAG-3 (herein referred to as HEK293-cLAG-3 stable cell line). The HEK293-hLAG-3 stable cell line and HEK293-cLAG-3 stable cell line were expanded in a T-75 cell culture flask to a 90% confluence. The medium was aspirated, and the cells were washed with HBSS (Hanks' Balanced Salt Solution) 1-2 times, then treated with a enzyme-free cell dissociation fluid (Versene solution: Life technology) and the cells were collected. The cells were washed with HBSS buffer for 1-2 times. After counted, the cells were diluted with HBSS to 1-2×10⁶ cells per ml, added with 1% goat serum blocking solution, incubated on ice for 20-30 minutes, and then washed with HBSS for 2 times by centrifugation. The collected cells were suspended in the FACS buffer (HBSS+1% BSA) to 2×10⁶ cells/ml, added as 100 microliters per well to a 96-well FACS reaction plate, added with 100 microliters per well of the antibody sample to be tested, incubated on ice for 1-2 hours. The plate was washed twice with the FACS buffer by centrifugation, added with 100 microliters of fluorescent (Alexa 488)-labeled secondary antibodies per well, and incubated on ice for 0.5-1.0 hours. The plate was washed 2-3 times with FACS buffer by centrifugation, added with 100 μl fixative solution (4% Paraformaldehyde) per well to suspend the cells. 5-10 minutes later, it was washed 1-2 times with FACS buffer by centrifugation. The cells were suspended with 100 microliters of FACS buffer, FACS (FACSCalibur, BD) was used for detection and the results were analyzed.

Binder | Mean fluorescence intensity
405B8H3 mouse-human chimeric antibody (antibody, V domains shown, also called mAb103-405B8H3) VH: QVQLQQSGAELVRPGASVTLSCKASGYTFTDYEMHWVKQTPVHGLEWIGATDPETGNSAYNQKFKGKAIMTADKSSSTAYMELRSLTSEDSAVYYCISTGWNDWGQGTSLTVSS VL: DIKMTQSPSSMYASLGERVTITCKASQDINSYLSWFQQKPGKSPKTLIYRADRLLDGVPSRFSGSGSGQDYSLTISSLEYGDMGIYYCLQYDEFPYTFGGGTKLEIK | 2.8
409B11E12 mouse-human chimeric antibody (antibody, V domains shown, also called mAb104-409B11E12) VH: QVQLQQSGAELVRPGASVTLSCKASGYTFTDYEMHWVKQTTVHGLEWIGATDPETSYSAYNQKFKGKAILTADKSSSTAYMELRSLTSEDSAVYYCIATGWNDWGQGTSLTVSS VL: DLKMTQSPSSMYASLGERVTITCKASQDINSYLSWFQQKPGKSPKTLIYRANRLLDGVPSRFSGSGSGQDYSLTISSLEYEDMGIYYCLQYDEFPYTFGGGTKLEIK | 2.8
409D4E10 mouse-human chimeric antibody (antibody, V domains shown, also called mAb112-409D4E10) VH: QVQLQQSGAELVRPGASVTLSCKASGNTFTDYEMHWVKQTPVHGLEWIGATDPETDNTAYNQKFKGKAILTTDKSSSTAYMELRSLTSEDSAVYYCITSGWNDWGQGTSLTVSS VL: DIKMTQSPSSMYASLGERVTITCKASQDINSYLSWFQQKPGKSPKTLIYRANRLLDGVPSRFSGSGSGQDYSLTISSLEYEDMGIYYCLQYNEFPYTFGGGTKLEIK | 3
